From publication PMC7338052

Target: endogenous CHK2 (human (endogenous in LNCaP)) (UniProt O96017)
Experiment: co-IP; LNCaP cells expressing wtAR, S81A or S308A for 48 hr; untreated or 6 Gy IR; endogenous CHK2 immunoprecipitated one hour after IR from 1 mg lysate; blotted for AR

Chain of UniProt O96017 (O96017 whole entry): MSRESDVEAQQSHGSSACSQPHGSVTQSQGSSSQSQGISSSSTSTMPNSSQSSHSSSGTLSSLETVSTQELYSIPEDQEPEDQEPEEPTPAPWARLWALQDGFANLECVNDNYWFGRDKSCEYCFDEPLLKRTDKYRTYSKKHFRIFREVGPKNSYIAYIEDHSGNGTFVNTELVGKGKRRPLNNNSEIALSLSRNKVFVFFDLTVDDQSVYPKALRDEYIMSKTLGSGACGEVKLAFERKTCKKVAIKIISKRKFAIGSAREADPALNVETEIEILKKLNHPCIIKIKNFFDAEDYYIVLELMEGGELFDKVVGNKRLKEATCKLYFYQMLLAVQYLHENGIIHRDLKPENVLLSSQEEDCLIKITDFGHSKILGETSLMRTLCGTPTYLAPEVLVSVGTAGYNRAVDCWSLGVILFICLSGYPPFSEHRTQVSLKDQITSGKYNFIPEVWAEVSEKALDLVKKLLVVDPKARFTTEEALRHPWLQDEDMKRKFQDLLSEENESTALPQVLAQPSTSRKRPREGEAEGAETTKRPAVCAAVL

For “wtAR expressed in LNCaP cells (from UniProt P10275 1-920) (receptor)”, the fold change of AR co-immunoprecipitated with CHK2 after IR against untreated cells was 4 fold.
